Among the data in paper PMC4803055 are Kd values, retold here.

The target of the data set is T1, Mte1 (YGR042W) (Saccharomyces cerevisiae, UniProt P53227 1-271).
T1 sequence: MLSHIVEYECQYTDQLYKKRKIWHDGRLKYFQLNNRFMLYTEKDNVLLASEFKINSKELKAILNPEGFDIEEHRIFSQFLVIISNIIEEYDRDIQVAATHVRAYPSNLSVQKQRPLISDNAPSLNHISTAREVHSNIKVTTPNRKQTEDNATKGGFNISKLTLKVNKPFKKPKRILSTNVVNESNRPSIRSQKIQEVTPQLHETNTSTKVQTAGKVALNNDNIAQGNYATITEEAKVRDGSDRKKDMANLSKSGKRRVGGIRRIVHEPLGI
As to the kind of experiment: EMSA. (A gel shift assay detects complexes by their altered migration in electrophoresis.)

B1: ssDNA (oligo 1) (ssDNA)
DNA: AGCTATGACCATGATTACGAATTGCTTAATTCGTGCAGGCATGGTAGCT
B1: the affinity, expressed as Kd, was 16 ± 3 nM.
